Reference: article PMC11649929

Biological target: 5*MYC-HSD17B13 (Mouse) (UniProt Q8VCR2)
Assay: co-immunoprecipitation (IP: MYC) and Western blotting, band intensity
Settings: HEK293T cells transfected with EGFP-Rab2A plasmids and MYC-HSD17B13; parent: 3.3

Sequence of UniProt Q8VCR2 (Q8VCR2 whole entry): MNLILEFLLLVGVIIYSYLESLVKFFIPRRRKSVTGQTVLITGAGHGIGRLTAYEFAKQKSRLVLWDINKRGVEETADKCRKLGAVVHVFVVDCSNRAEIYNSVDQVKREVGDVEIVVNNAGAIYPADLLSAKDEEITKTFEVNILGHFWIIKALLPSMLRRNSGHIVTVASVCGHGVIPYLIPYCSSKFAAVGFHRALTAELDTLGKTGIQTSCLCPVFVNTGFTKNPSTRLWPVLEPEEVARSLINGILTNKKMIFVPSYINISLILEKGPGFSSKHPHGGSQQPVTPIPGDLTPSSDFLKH

response: 0.9
Substance: Rab2A, wild type, expressed from a plasmid in HEK293T cells (tag not told) (from UniProt P53994) Q32...E42-A...A
